Laboratory results taken from patent US20110039758A1 (published 2011).
Ends that are not written are not given here. * marks the point of attachment. Biotin = O=C1N[C@H]2[C@H](CS[C@H]2CCCCC(=O)*)N1

Assays:
[1] = target: T1, GST-PSD95 PDZ domain 1 (human); assay: G assay
T1 construct: also called PSD95 d1; PSD-95 d1

[2] = target: T2, GST-PSD95 PDZ domain 2 (human); assay: G assay
T2 construct: also called PSD95 d2; PSD-95 d2

[3] = target: T3, GST-PSD95 PDZ domain 3 (human); assay: G assay
T3 construct: also called PSD95 d3; PSD95 domain 3
T3 sequence (chain, as listed by the source): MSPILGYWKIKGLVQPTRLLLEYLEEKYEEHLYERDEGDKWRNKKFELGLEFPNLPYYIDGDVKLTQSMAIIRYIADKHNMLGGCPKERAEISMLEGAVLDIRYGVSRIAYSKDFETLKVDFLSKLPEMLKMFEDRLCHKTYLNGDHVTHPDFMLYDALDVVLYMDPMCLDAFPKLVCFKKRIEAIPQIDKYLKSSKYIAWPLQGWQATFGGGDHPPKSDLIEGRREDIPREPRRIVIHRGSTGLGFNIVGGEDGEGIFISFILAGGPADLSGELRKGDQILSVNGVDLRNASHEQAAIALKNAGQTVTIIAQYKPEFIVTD

[4] = target: T2, GST-PSD95 PDZ domain 2; assay: G assay competition against NMDAR2A or R2B peptide, FIG. 10
[5] = target: T1, GST-PSD95 PDZ domain 1; assay: G assay with MBP-nNOS, anti-MBP-HRP detection, FIG. 11
Procedure: This protein was used in the G assay in place of a labeled peptide to assess the interaction between PSD95 domains 1 and 2 and nNOS, and detection was performed using an HRP-conjugated antibody against MBP. […] MBP/PSD95 indicates a negative control containing MBP without the nNOS sequences.

T1 sequence (chain, as listed by the source): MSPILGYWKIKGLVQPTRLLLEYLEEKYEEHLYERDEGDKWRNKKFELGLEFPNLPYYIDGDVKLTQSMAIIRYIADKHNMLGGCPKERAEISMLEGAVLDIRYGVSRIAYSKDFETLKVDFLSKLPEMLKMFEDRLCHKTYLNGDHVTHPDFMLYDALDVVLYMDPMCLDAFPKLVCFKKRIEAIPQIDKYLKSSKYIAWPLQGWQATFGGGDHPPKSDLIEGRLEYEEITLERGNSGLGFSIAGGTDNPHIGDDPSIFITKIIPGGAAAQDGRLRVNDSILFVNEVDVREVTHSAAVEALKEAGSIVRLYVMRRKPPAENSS

B1: TatTAX: TAT transporter sequence coupled to the C-terminal 9 amino acids of Tax (peptide)
peptide: YGRKKRRQRRREKHFRETEV
modifications: also: N-terminal biotin when used as labelled ligand
Average OD [1]: 2.81 OD
Average OD [2]: 2.79 OD
Average OD [3]: 2.93 OD
IC50 [4]: 100 to 1000 nM

B2: ESSGTQSPKRHSGSYLVTSV peptide (peptide)
peptide: Biotin-ESSGTQSPKRHSGSYLVTSV
Average OD [3]: 0.7 OD

B3: Maltose Binding Protein (MBP) fused to amino acids 1-120 of nNOS (other, UniProt P29475 1-120, looked up, not shown: large carriers)
chain: MEDHMFGVQQIQPNVISVRLFKRKVGGLGFLVKERVSKPPVIISDLIRGGAAEQSGLIQAGDIILAVNGRPLVDLSYDSALEVLRGIASETHVVLILRGPEGFTTHLETTFTGDGTPKTI
notes: range 1-120; also called MBP-nNOS; internal PL of nNOS
binding result [5]: no binding
